The values below come from patent publication US20120282643A1.

The target in this assay is sulfite reductase tagged with a C-terminal GFP S11 (SEQ ID NO: 16). As to the kind of experiment: cell-based or functional assay.

Take “Split-YFP S1-10 (T65G, T203Y) (from UniProt P42212 1-214)”: the Green Fluorescence (488/510) (clone A9) was determined as 4.5, the Green Fluorescence (488/510) (clone B2) stood at 5.85, the Green Fluorescence (488/510) (clone E7) amounted to 6.91 and the Ratio Yellow/Green Fluorescence (clone A9) is 24.3. Moreover, the Ratio Yellow/Green Fluorescence (clone B2) was 19.5, the Ratio Yellow/Green Fluorescence (clone E7) was determined as 17, the Yellow Fluorescence (510/532) (clone A9) came out at 109 and the Yellow Fluorescence (510/532) (clone B2) came to 114. The Yellow Fluorescence (510/532) (clone E7) stood at 117.

For “Split-YFP S1-10 (T65L, V176I, T203Y, T205S) (from UniProt P42212 1-214)”, the Green Fluorescence (488/510) (clone A7) was found to be 2.77, the Ratio Yellow/Green Fluorescence (clone A7) amounted to 28.5 and the Yellow Fluorescence (510/532) (clone A7) came out at 79.1.

As to “Split-YFP S1-10 (T203Y) (from UniProt P42212 1-214)”, the Green Fluorescence (488/510) (clone A6) amounted to 7.74, the Green Fluorescence (488/510) (clone A8) worked out at 8.54, the Green Fluorescence (488/510) (clone B3) was found to be 13.9 and the Green Fluorescence (488/510) (clone B4) turned out to be 16. For the same substance, the Green Fluorescence (488/510) (clone B6) is 8.08, the Green Fluorescence (488/510) (clone B10) was determined as 16.1, the Green Fluorescence (488/510) (clone C9) stood at 17.5 and the Green Fluorescence (488/510) (clone D1) came to 16.4. The Green Fluorescence (488/510) (clone D2) is 18.5, the Green Fluorescence (488/510) (clone D5) is 17.8, the Green Fluorescence (488/510) (clone D7) was 17.4 and the Green Fluorescence (488/510) (clone D9) is 21. For the same substance, the Green Fluorescence (488/510) (clone D10) is 18.2, the Green Fluorescence (488/510) (clone D11) was determined as 17.1, the Green Fluorescence (488/510) (clone E1) turned out to be 12.3 and the Green Fluorescence (488/510) (clone E3) worked out at 17.9. Also, the Green Fluorescence (488/510) (clone E4) was 17.4, the Green Fluorescence (488/510) (clone E6) is 15.4, the Green Fluorescence (488/510) (clone E8) is 22.9 and the Green Fluorescence (488/510) (clone E9) was 23.9. This substance also came in with a Green Fluorescence (488/510) (clone F1) of 15.8, a Green Fluorescence (488/510) (clone F6) of 11.5, a Green Fluorescence (488/510) (clone F7) of 17.7 and a Green Fluorescence (488/510) (clone F9) of 21.4. The substance also displayed a Green Fluorescence (488/510) (clone F10) of 8.11, a Green Fluorescence (488/510) (clone F11) of 19, a Green Fluorescence (488/510) (clone G9) of 18.6 and a Green Fluorescence (488/510) (clone G10) of 17. This substance gave a Green Fluorescence (488/510) (clone H4) of 9.39, a Green Fluorescence (488/510) (clone H5) of 8.77, a Green Fluorescence (488/510) (clone H9) of 12.4 and a Green Fluorescence (488/510) (clone H10) of 13.1. Also, the Ratio Yellow/Green Fluorescence (clone A6) was found to be 18.9, the Ratio Yellow/Green Fluorescence (clone A8) stood at 17.5, the Ratio Yellow/Green Fluorescence (clone B3) was determined as 10.5 and the Ratio Yellow/Green Fluorescence (clone B4) came out at 9.71. The Ratio Yellow/Green Fluorescence (clone B6) worked out at 13.7, the Ratio Yellow/Green Fluorescence (clone B10) amounted to 10.2, the Ratio Yellow/Green Fluorescence (clone C9) stood at 9.2 and the Ratio Yellow/Green Fluorescence (clone D1) amounted to 9.41. Moreover, the Ratio Yellow/Green Fluorescence (clone D2) worked out at 8.3, the Ratio Yellow/Green Fluorescence (clone D5) came out at 8.66, the Ratio Yellow/Green Fluorescence (clone D7) amounted to 8.97 and the Ratio Yellow/Green Fluorescence (clone D9) came out at 7.45. Also, the Ratio Yellow/Green Fluorescence (clone D10) came out at 7.74, the Ratio Yellow/Green Fluorescence (clone D11) worked out at 8.31, the Ratio Yellow/Green Fluorescence (clone E1) worked out at 11.3 and the Ratio Yellow/Green Fluorescence (clone E3) was found to be 8.45. The Ratio Yellow/Green Fluorescence (clone E4) came out at 8.79, the Ratio Yellow/Green Fluorescence (clone E6) came out at 10.1, the Ratio Yellow/Green Fluorescence (clone E8) stood at 7.21 and the Ratio Yellow/Green Fluorescence (clone E9) is 6.93. Moreover, the Ratio Yellow/Green Fluorescence (clone F1) stood at 10.1, the Ratio Yellow/Green Fluorescence (clone F6) is 12.6, the Ratio Yellow/Green Fluorescence (clone F7) was 9.1 and the Ratio Yellow/Green Fluorescence (clone F9) came out at 7.71. Also, the Ratio Yellow/Green Fluorescence (clone F10) was determined as 14.3, the Ratio Yellow/Green Fluorescence (clone F11) came out at 8.74, the Ratio Yellow/Green Fluorescence (clone G9) was 9.14 and the Ratio Yellow/Green Fluorescence (clone G10) was found to be 9.91. Further, the Ratio Yellow/Green Fluorescence (clone H4) came out at 16.6, the Ratio Yellow/Green Fluorescence (clone H5) was 18.4, the Ratio Yellow/Green Fluorescence (clone H9) came out at 13.5 and the Ratio Yellow/Green Fluorescence (clone H10) came to 13.3. Further, the Yellow Fluorescence (510/532) (clone A6) was found to be 146, the Yellow Fluorescence (510/532) (clone A8) came out at 150, the Yellow Fluorescence (510/532) (clone B3) stood at 146 and the Yellow Fluorescence (510/532) (clone B4) worked out at 155. The Yellow Fluorescence (510/532) (clone B6) amounted to 111, the Yellow Fluorescence (510/532) (clone B10) was found to be 165, the Yellow Fluorescence (510/532) (clone C9) is 161 and the Yellow Fluorescence (510/532) (clone D1) was 154. In addition, the Yellow Fluorescence (510/532) (clone D2) turned out to be 154, the Yellow Fluorescence (510/532) (clone D5) is 154, the Yellow Fluorescence (510/532) (clone D7) turned out to be 156 and the Yellow Fluorescence (510/532) (clone D9) is 156. Further, the Yellow Fluorescence (510/532) (clone D10) worked out at 141, the Yellow Fluorescence (510/532) (clone D11) was determined as 143, the Yellow Fluorescence (510/532) (clone E1) came to 139 and the Yellow Fluorescence (510/532) (clone E3) turned out to be 151. The substance also showed a Yellow Fluorescence (510/532) (clone E4) of 153, a Yellow Fluorescence (510/532) (clone E6) of 155, a Yellow Fluorescence (510/532) (clone E8) of 165 and a Yellow Fluorescence (510/532) (clone E9) of 165. The substance also yielded a Yellow Fluorescence (510/532) (clone F1) of 159, a Yellow Fluorescence (510/532) (clone F6) of 144, a Yellow Fluorescence (510/532) (clone F7) of 161 and a Yellow Fluorescence (510/532) (clone F9) of 165. The Yellow Fluorescence (510/532) (clone F10) stood at 116, the Yellow Fluorescence (510/532) (clone F11) is 166, the Yellow Fluorescence (510/532) (clone G9) is 170 and the Yellow Fluorescence (510/532) (clone G10) was determined as 168. Also, the Yellow Fluorescence (510/532) (clone H4) amounted to 156, the Yellow Fluorescence (510/532) (clone H5) was 161, the Yellow Fluorescence (510/532) (clone H9) is 168 and the Yellow Fluorescence (510/532) (clone H10) turned out to be 175.

For the substance “Split-YFP S1-10 (T203Y, D210V) (from UniProt P42212 1-214)”, the Green Fluorescence (488/510) (clone E10) was 21.4, the Ratio Yellow/Green Fluorescence (clone E10) was 7.33 and the Yellow Fluorescence (510/532) (clone E10) was determined as 157.

Consider “Split-YFP S1-10 (T203Y, Q204E) (from UniProt P42212 1-214)”, for which the Green Fluorescence (488/510) (clone C6) was found to be 5.1, the Ratio Yellow/Green Fluorescence (clone C6) was 20 and the Yellow Fluorescence (510/532) (clone C6) came to 102.

“Split-YFP S1-10 (T203Y, Q204H) (from UniProt P42212 1-214)”: the Green Fluorescence (488/510) (clone F8) is 20.2, the Ratio Yellow/Green Fluorescence (clone F8) worked out at 8.16 and the Yellow Fluorescence (510/532) (clone F8) was 165.

For “Split-YFP S1-10 (T203Y, T205A) (from UniProt P42212 1-214)”, the Green Fluorescence (488/510) (clone A3) amounted to 1.8, the Ratio Yellow/Green Fluorescence (clone A3) worked out at 42 and the Yellow Fluorescence (510/532) (clone A3) worked out at 75.7.

For the substance “Split-YFP S1-10 (Y200F, T203Y) (from UniProt P42212 1-214)”, the Green Fluorescence (488/510) (clone B9) turned out to be 14.7, the Ratio Yellow/Green Fluorescence (clone B9) was found to be 10.9 and the Yellow Fluorescence (510/532) (clone B9) was determined as 160.
